We go through one molecule from patent US8871276B2, “Beta-casein assemblies for mucosal delivery of therapeutic bioactive agents” (Technion Research and Development Foundation Ltd., priority 2008, dated 2014).

Data set [1] is described as follows: Dynamic light scattering (DLS) size distribution. The class given is physicochemical. The method, then: DLS and Zeta potential measurements performed on a combined DLS and zeta potential analyzer (Nicomp 380 ZLS zeta potential/particle sizer, USA), at 25° C. were performed for size distribution and electrostatics characterization. For DLS measurements the scattered light intensity was detected with an Avalanche Photo Diode (APD) detector, used at a fixed angle of 90°. Laser wavelength was 658 nm, operating at 90 mW. Mono- bi- or tri-modal distributions were calculated from the scattered light intensity fluctuations, by Nicomp™ cumulants analysis of the intensity autocorrelation function. Zeta potential measurements were performed in triplicate.

Data set [2] is described as follows: Storage stability / appearance of suspensions and lyophilized powder. It counts as physicochemical. The note with it: stored at 4 °C, neutral pH. Here is the method:
Bovine β-casein (>90%; Sigma-Aldrich) was dissolved in pH 7.0 hepes buffer containing 200 mM hepes (MP Biomedicals), 10 mM MgCl2 (Sigma-Aldrich), 20 mM EGTA (Sigma-Aldrich) and 10 mM NaCl (Loba Chemie), and was placed over-night at 4° C. under stirring. The protein solutions were prepared at concentrations ranging from 0.5 to 2 wt % (0.21 to 0.83 mM respectively), and were filtered through a porous membrane of 0.45 μm to avoid large protein aggregates. […] Stirring continued for 30 minutes in room temperature. […] The specimens remained stable i.e., no precipitation was observed, for at least 3 weeks at 4° C.
Protein and protein-drug solutions were lyophilized by freezing in liquid nitrogen followed by drying in a Christ Alpha 1-4 lyophilizer for 24 hours. The specimens were stored in 4° C. until re-suspension in hepes buffer, back to the original concentration (0.5 wt % or 2 wt %), or to a higher concentration of 5 wt %. Re-suspension was performed by weighing the powder, adding a measured amount of buffer and stirring for 30 minutes in room temperature.
The lifetime of the drug-loaded complexes increased to at least 3 weeks at the same temperature. Stability of the assemblies remains when they were transferred to room temperatures. […] This process provided increased stability of the loaded micelles in a dry powder form, for at least 6 months.

[3] abbreviates: 0.5% β-casein, empty or loaded 1:8 celecoxib, pH ~7.

B1: β-casein: bovine β-casein self-assembled into unloaded micelles in acidic or neutral buffer (protein, UniProt P02666 16-224, looked up)
Beta-casein: RELEELNVPGEIVESLSSSEESITRINKKIEKFQSEEQQQTEDELQDKIHPFAQTQSLVYPFPGPIPNSLPQNIPPLTQTPVVVPPFLQPEVMGVSKVKEAMAPKHKEMPFPKYPVEPFTESQSLTLTDVENLHLPLPLLQSWMHQPHQPLPPTVMFPPQSVLSLSQSKVLPVPQKAVPYPQRDMPIQAFLLYQEPVLGPVRGPFPIIV
modifications: self-assembled micelles
notes: bovine β-casein self-assembled into unloaded micelles in acidic or neutral buffer
B1: in data set [1] (setting [3]), the “Micelle diameter (DLS), after lyophilization and re-suspension” value came out at 21 nm; the “Micelle diameter (DLS), before drying” value is recorded as 19 nm. Besides, in data set [1] (2 wt % β-casein, empty or loaded 1:1 budesonide, hepes buffer pH 7.0), the “Micelle diameter (DLS)” value was 19.6±3.4 nm. The “Lifetime of empty micelles on storage” value in data set [2] is listed as “degraded within a few days”.
